Starred links: 1 amine or outer side, 2 acyl side, 3 side chain; linkers in the order of their positions; H or OH if unused. Non-standard residues stand in square brackets, D forms with d. Groups on a side chain read outwards from the residue. No end group written: not given here. *: point of attachment. C18 diacid = O=C(O)CCCCCCCCCCCCCCCCC(=O)*; γGlu = O=C(O)[C@H](CCC(=O)[*:2])N[*:1]; εLys = N[C@@H](CCCCN[*:1])C(=O)[*:2]; Aib = CC(C)(N)C(=O)O
T1: human GIP receptor (human, UniProt P48546 22-466)
T1 sequence (looked up): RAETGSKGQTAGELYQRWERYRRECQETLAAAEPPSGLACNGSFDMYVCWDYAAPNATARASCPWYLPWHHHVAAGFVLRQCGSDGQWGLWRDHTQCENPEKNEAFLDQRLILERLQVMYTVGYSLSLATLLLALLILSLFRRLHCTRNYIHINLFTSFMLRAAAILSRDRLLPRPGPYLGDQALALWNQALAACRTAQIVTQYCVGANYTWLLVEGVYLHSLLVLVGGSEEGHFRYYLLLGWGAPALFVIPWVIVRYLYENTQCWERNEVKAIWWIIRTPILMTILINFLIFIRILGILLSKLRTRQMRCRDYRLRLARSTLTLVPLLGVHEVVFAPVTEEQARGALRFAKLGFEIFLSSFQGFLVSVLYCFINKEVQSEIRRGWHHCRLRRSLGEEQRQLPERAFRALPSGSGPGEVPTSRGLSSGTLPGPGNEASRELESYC

B1: Compound No. 41 (peptide)
peptide: Y[Aib]EGTFTSDYSK([εLys-εLys-γGlu-C18 diacid])YLEEQAAREFINWLLAGGPSSGAPPPS-OH
modifications: N-terminus assumed
SMILES: CC[C@H](C)[C@H](NC(=O)[C@H](Cc1ccccc1)NC(=O)[C@H](CCC(=O)O)NC(=O)[C@H](CCCNC(=N)N)NC(=O)[C@H](C)NC(=O)[C@H](C)NC(=O)[C@H](CCC(N)=O)NC(=O)[C@H](CCC(=O)O)NC(=O)[C@H](CCC(=O)O)NC(=O)[C@H](CC(C)C)NC(=O)[C@H](Cc1ccc(O)cc1)NC(=O)[C@H](CCCCNC(=O)[C@@H](N)CCCCNC(=O)[C@@H](N)CCCCNC(=O)CC[C@H](NC(=O)CCCCCCCCCCCCCCCCC(=O)O)C(=O)O)NC(=O)[C@H](CO)NC(=O)[C@H](Cc1ccc(O)cc1)NC(=O)[C@H](CC(=O)O)NC(=O)[C@H](CO)NC(=O)[C@@H](NC(=O)[C@H](Cc1ccccc1)NC(=O)[C@@H](NC(=O)CNC(=O)[C@H](CCC(=O)O)NC(=O)C(C)(C)NC(=O)[C@@H](N)Cc1ccc(O)cc1)[C@@H](C)O)[C@@H](C)O)C(=O)N[C@@H](CC(N)=O)C(=O)N[C@@H](Cc1c[nH]c2ccccc12)C(=O)N[C@@H](CC(C)C)C(=O)N[C@@H](CC(C)C)C(=O)N[C@@H](C)C(=O)NCC(=O)NCC(=O)N1CCC[C@H]1C(=O)N[C@@H](CO)C(=O)N[C@@H](CO)C(=O)NCC(=O)N[C@@H](C)C(=O)N1CCC[C@H]1C(=O)N1CCC[C@H]1C(=O)N1CCC[C@H]1C(=O)N[C@@H](CO)C(=O)O
B2: Compound No. 3 (peptide)
peptide: Y[Aib]EGTFTSDYSYYLEK([εLys-εLys-γGlu-C18 diacid])QAAQEFVNWLLAGGPSSGAPPPS-NH2
modifications: N-terminus assumed
SMILES: CC(C)C[C@H](NC(=O)[C@H](CC(C)C)NC(=O)[C@H](Cc1c[nH]c2ccccc12)NC(=O)[C@H](CC(N)=O)NC(=O)[C@@H](NC(=O)[C@H](Cc1ccccc1)NC(=O)[C@H](CCC(=O)O)NC(=O)[C@H](CCC(N)=O)NC(=O)[C@H](C)NC(=O)[C@H](C)NC(=O)[C@H](CCC(N)=O)NC(=O)[C@H](CCCCNC(=O)[C@@H](N)CCCCNC(=O)[C@@H](N)CCCCNC(=O)CC[C@H](NC(=O)CCCCCCCCCCCCCCCCC(=O)O)C(=O)O)NC(=O)[C@H](CCC(=O)O)NC(=O)[C@H](CC(C)C)NC(=O)[C@H](Cc1ccc(O)cc1)NC(=O)[C@H](Cc1ccc(O)cc1)NC(=O)[C@H](CO)NC(=O)[C@H](Cc1ccc(O)cc1)NC(=O)[C@H](CC(=O)O)NC(=O)[C@H](CO)NC(=O)[C@@H](NC(=O)[C@H](Cc1ccccc1)NC(=O)[C@@H](NC(=O)CNC(=O)[C@H](CCC(=O)O)NC(=O)C(C)(C)NC(=O)[C@@H](N)Cc1ccc(O)cc1)[C@@H](C)O)[C@@H](C)O)C(C)C)C(=O)N[C@@H](C)C(=O)NCC(=O)NCC(=O)N1CCC[C@H]1C(=O)N[C@@H](CO)C(=O)N[C@@H](CO)C(=O)NCC(=O)N[C@@H](C)C(=O)N1CCC[C@H]1C(=O)N1CCC[C@H]1C(=O)N1CCC[C@H]1C(=O)N[C@@H](CO)C(N)=O
B3: Compound No. 30 (peptide)
peptide: Y[Aib]EGTFTSDYSILLEK([εLys-εLys-γGlu-C18 diacid])QAAHEFIEWLLAGGPSSGAPPPS-OH
modifications: N-terminus assumed
SMILES: CC[C@H](C)[C@H](NC(=O)[C@H](Cc1ccccc1)NC(=O)[C@H](CCC(=O)O)NC(=O)[C@H](Cc1c[nH]cn1)NC(=O)[C@H](C)NC(=O)[C@H](C)NC(=O)[C@H](CCC(N)=O)NC(=O)[C@H](CCCCNC(=O)[C@@H](N)CCCCNC(=O)[C@@H](N)CCCCNC(=O)CC[C@H](NC(=O)CCCCCCCCCCCCCCCCC(=O)O)C(=O)O)NC(=O)[C@H](CCC(=O)O)NC(=O)[C@H](CC(C)C)NC(=O)[C@H](CC(C)C)NC(=O)[C@@H](NC(=O)[C@H](CO)NC(=O)[C@H](Cc1ccc(O)cc1)NC(=O)[C@H](CC(=O)O)NC(=O)[C@H](CO)NC(=O)[C@@H](NC(=O)[C@H](Cc1ccccc1)NC(=O)[C@@H](NC(=O)CNC(=O)[C@H](CCC(=O)O)NC(=O)C(C)(C)NC(=O)[C@@H](N)Cc1ccc(O)cc1)[C@@H](C)O)[C@@H](C)O)[C@@H](C)CC)C(=O)N[C@@H](CCC(=O)O)C(=O)N[C@@H](Cc1c[nH]c2ccccc12)C(=O)N[C@@H](CC(C)C)C(=O)N[C@@H](CC(C)C)C(=O)N[C@@H](C)C(=O)NCC(=O)NCC(=O)N1CCC[C@H]1C(=O)N[C@@H](CO)C(=O)N[C@@H](CO)C(=O)NCC(=O)N[C@@H](C)C(=O)N1CCC[C@H]1C(=O)N1CCC[C@H]1C(=O)N1CCC[C@H]1C(=O)N[C@@H](CO)C(=O)O
B4: Compound No. 29 (peptide)
peptide: Y[Aib]EGTFTSDYSILLEK([εLys-εLys-γGlu-C18 diacid])QAAQEFIEWLLAGGPSSGAPPPS-OH
modifications: N-terminus assumed
SMILES: CC[C@H](C)[C@H](NC(=O)[C@H](Cc1ccccc1)NC(=O)[C@H](CCC(=O)O)NC(=O)[C@H](CCC(N)=O)NC(=O)[C@H](C)NC(=O)[C@H](C)NC(=O)[C@H](CCC(N)=O)NC(=O)[C@H](CCCCNC(=O)[C@@H](N)CCCCNC(=O)[C@@H](N)CCCCNC(=O)CC[C@H](NC(=O)CCCCCCCCCCCCCCCCC(=O)O)C(=O)O)NC(=O)[C@H](CCC(=O)O)NC(=O)[C@H](CC(C)C)NC(=O)[C@H](CC(C)C)NC(=O)[C@@H](NC(=O)[C@H](CO)NC(=O)[C@H](Cc1ccc(O)cc1)NC(=O)[C@H](CC(=O)O)NC(=O)[C@H](CO)NC(=O)[C@@H](NC(=O)[C@H](Cc1ccccc1)NC(=O)[C@@H](NC(=O)CNC(=O)[C@H](CCC(=O)O)NC(=O)C(C)(C)NC(=O)[C@@H](N)Cc1ccc(O)cc1)[C@@H](C)O)[C@@H](C)O)[C@@H](C)CC)C(=O)N[C@@H](CCC(=O)O)C(=O)N[C@@H](Cc1c[nH]c2ccccc12)C(=O)N[C@@H](CC(C)C)C(=O)N[C@@H](CC(C)C)C(=O)N[C@@H](C)C(=O)NCC(=O)NCC(=O)N1CCC[C@H]1C(=O)N[C@@H](CO)C(=O)N[C@@H](CO)C(=O)NCC(=O)N[C@@H](C)C(=O)N1CCC[C@H]1C(=O)N1CCC[C@H]1C(=O)N1CCC[C@H]1C(=O)N[C@@H](CO)C(=O)O

Each binder was assayed against human GLP-1 receptor (human, UniProt P43220 24-463) (assay: cell-based or functional assay).

| Binder | hGLP-1R, CRE Luc 0% HSA EC50 (pM) | hGLP-1R, CRE Luc 1% HSA EC50 (pM) |
| --- | --- | --- |
| B1 | 1.2 pM | 31.4 pM |
| B2 | 8.5 pM | 626 pM |
| B3 | 7.3 pM | 268 pM |
| B4 | 16.8 pM | 378 pM |

Each binder was assayed against T1, human GIP receptor (assay: cell-based or functional assay).

| Binder | hGIPR, CRE Luc 0% HSA EC50 (pM) | hGIPR, CRE Luc 1% HSA EC50 (pM) |
| --- | --- | --- |
| B1 | 4.9 pM | 79.3 pM |
| B2 | 6.9 pM | 229 pM |
| B3 | 3.2 pM | 185 pM |
| B4 | 3.8 pM | 102 pM |

Source: patent publication US20230272029A1, “CO-AGONISTS AT GLP-1 AND GIP RECEPTORS SUITABLE FOR ORAL DELIVERY” (Novo Nordisk A/S, priority 2020, published 2023)
